From patent publication US20020127539A1, “Assays for identifying receptors having alterations in signaling” (priority 2000, published 2002) come the findings set out here.

The target of test [1] is wild-type rat mu opioid receptor (rat). Briefly: cell-based or functional assay.
For test [2], the target named is Asn150Ala mutant rat mu opioid receptor (rat). Kind of test: cell-based or functional assay.

“[D-Ala2-MePhe4, Gly-ol5]enkephalin (peptide)”: the values for the Average Ligand Stimulated Activity (Light Emission), SRE-Luc + Gq5i luciferase reporter in HEK293 cells (light emission) in test [1] and in test [2] were 87500 and 87000, respectively.
